Blank lines part the entries; values can stand above or below the molecule they belong to.
How the values were obtained:
LlGH31_u1 = target: T1, LlGH31_u1 (Lactococcus cremoris, UniProt A2RM80); assay: X-ray crystal structure of complex (soaked); format: binding; conditions: 100 mM glucose soak, 45 min; subsite −1; both α- and β-anomers modelled
T1 construct: gene xylS; full length (no signal peptide), N-terminal His tag, pET28a, E. coli BL21(DE3); Tyr99 of the adjacent protomer reaches the active site
T1 sequence (A2RM80 1-739): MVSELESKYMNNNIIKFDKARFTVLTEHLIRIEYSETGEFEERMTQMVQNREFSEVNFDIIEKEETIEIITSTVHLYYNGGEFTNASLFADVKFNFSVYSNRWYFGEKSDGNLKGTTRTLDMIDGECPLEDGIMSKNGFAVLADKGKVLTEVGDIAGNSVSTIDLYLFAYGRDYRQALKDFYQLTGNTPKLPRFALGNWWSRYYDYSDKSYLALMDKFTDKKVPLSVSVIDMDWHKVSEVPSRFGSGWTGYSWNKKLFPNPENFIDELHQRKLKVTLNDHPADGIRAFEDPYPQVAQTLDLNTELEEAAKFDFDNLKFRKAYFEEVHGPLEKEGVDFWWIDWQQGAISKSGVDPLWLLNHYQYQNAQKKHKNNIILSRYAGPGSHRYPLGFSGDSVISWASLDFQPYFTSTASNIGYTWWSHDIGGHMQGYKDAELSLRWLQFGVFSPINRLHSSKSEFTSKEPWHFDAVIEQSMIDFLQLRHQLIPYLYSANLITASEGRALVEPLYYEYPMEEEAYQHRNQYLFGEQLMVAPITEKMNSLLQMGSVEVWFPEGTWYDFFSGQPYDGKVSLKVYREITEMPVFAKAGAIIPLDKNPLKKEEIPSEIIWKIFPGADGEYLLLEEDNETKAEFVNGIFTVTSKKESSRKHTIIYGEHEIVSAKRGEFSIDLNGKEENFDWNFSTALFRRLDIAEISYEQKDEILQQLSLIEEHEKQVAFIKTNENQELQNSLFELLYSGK

[1] = target: GH31_u1 protein from Lactococcus lactis subsp. cremoris MG1363 (LlGH31_u1), wild type (Lactococcus lactis subsp. cremoris MG1363); assay: cryo-EM structure; single-particle analysis; 1.13 μM (as a hexamer) in 20 mM sodium phosphate buffer (pH 7.0), 300 mM NaCl
[2] = target: GH31_u1 protein from Lactococcus lactis subsp. cremoris MG1363 (LlGH31_u1), wild type (Lactococcus lactis subsp. cremoris MG1363); assay: SEC; gel filtration on HiLoad 16/60 Superdex 200 prep grade for molecular weight determination; 20 mM sodium phosphate buffer (pH 7.0), 300 mM NaCl
[3] = target: GH31_u1 protein from Lactococcus lactis subsp. cremoris MG1363 (LlGH31_u1), wild type (Lactococcus lactis subsp. cremoris MG1363); assay: crystal structure; hanging-drop vapor diffusion at 20 °C, PEG 3350, sodium citrate pH 7.0; crystal form 1 (P2_(1), six molecules in the asymmetric unit) and crystal form 2 (P6_(3)22, one molecule, hexamer by symmetry); unliganded, glucose-soaked or cocrystallised with 10 mM ligands
[4] = tested on: O=[N+]([O-])c1ccc(O[C@H]2O[C@H](CO)[C@@H](O)[C@H](O)[C@H]2O)cc1; assay: purified protein; conditions: 50 mM sodium phosphate pH 7.0, 50 mM NaCl
purified protein = substrate: O=[N+]([O-])c1ccc(O[C@H]2O[C@H](CO)[C@@H](O)[C@H](O)[C@H]2O)cc1; assay: purified protein; conditions: 50 mM sodium phosphate pH 7.0, 50 mM NaCl; remark: listed apart in the source

Molecule: OC[C@H]1OC(O)[C@H](O)[C@@H](O)[C@@H]1O (some centres unmarked) [glucose]
X-ray crystal structure of complex (soaked) (LlGH31_u1): we determined the crystal structure of WT in complex with glucose (WT-Glc)

stoichiometry N [1]: 6 | stoichiometry N [2]: 6 | stoichiometry N [3]: 6
Molecule: GH31_u1 protein from Lactococcus lactis subsp. cremoris MG1363 (LlGH31_u1), wild type (enzyme)

Molecule: LlGH31_u1 (Lactococcus cremoris subsp. cremoris MG1363; Y99F)
Km [4]: 28 ± 0.8 mM

B1: LlGH31_u1 (Lactococcus cremoris subsp. cremoris MG1363) (protein)
chain: MVSELESKYMNNNIIKFDKARFTVLTEHLIRIEYSETGEFEERMTQMVQNREFSEVNFDIIEKEETIEIITSTVHLYYNGGEFTNASLFADVKFNFSVYSNRWYFGEKSDGNLKGTTRTLDMIDGECPLEDGIMSKNGFAVLADKGKVLTEVGDIAGNSVSTIDLYLFAYGRDYRQALKDFYQLTGNTPKLPRFALGNWWSRYYDYSDKSYLALMDKFTDKKVPLSVSVIDMDWHKVSEVPSRFGSGWTGYSWNKKLFPNPENFIDELHQRKLKVTLNDHPADGIRAFEDPYPQVAQTLDLNTELEEAAKFDFDNLKFRKAYFEEVHGPLEKEGVDFWWIDWQQGAISKSGVDPLWLLNHYQYQNAQKKHKNNIILSRYAGPGSHRYPLGFSGDSVISWASLDFQPYFTSTASNIGYTWWSHDIGGHMQGYKDAELSLRWLQFGVFSPINRLHSSKSEFTSKEPWHFDAVIEQSMIDFLQLRHQLIPYLYSANLITASEGRALVEPLYYEYPMEEEAYQHRNQYLFGEQLMVAPITEKMNSLLQMGSVEVWFPEGTWYDFFSGQPYDGKVSLKVYREITEMPVFAKAGAIIPLDKNPLKKEEIPSEIIWKIFPGADGEYLLLEEDNETKAEFVNGIFTVTSKKESSRKHTIIYGEHEIVSAKRGEFSIDLNGKEENFDWNFSTALFRRLDIAEISYEQKDEILQQLSLIEEHEKQVAFIKTNENQELQNSLFELLYSGK
Km (purified protein): 20 ± 0.8 mM | kcat (purified protein): 31 s⁻¹ | kcat/Km (purified protein): 1500 M⁻¹ s⁻¹

— paper PMC9061262, “Structural basis of the strict specificity of a bacterial GH31 α-1,3-glucosidase for nigerooligosaccharides” (The Journal of Biological Chemistry, 2022)
